Measured values published in patent US20160068605A1 (Janssen / Centocor, published 2016).
“And” between values parts separate entries of the source, which are not always exact repeats. Equal entries are not always repeated.

Key:
[1] = molecular target: T1, cell-surface CD3 epsilon on primary human T cells (human, UniProt P07766 23-207); experiment: flow cytometry on primary human T cells, anti-human IgG Alexa Fluor 647; MFI
T1 construct: whole, on cells; part of the CD3/TCR complex on the cells
T1 sequence (P07766 23-207): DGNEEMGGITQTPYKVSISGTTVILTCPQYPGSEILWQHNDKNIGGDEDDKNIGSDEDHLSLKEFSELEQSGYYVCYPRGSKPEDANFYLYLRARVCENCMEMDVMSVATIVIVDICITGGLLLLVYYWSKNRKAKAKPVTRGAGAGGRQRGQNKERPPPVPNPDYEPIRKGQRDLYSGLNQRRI
Protocol: (§1) The resulting panel of anti-CD3 antibodies was tested for binding against cell-surface CD3ε on primary human T cells. To do this, binding of antibodies from expression supernatants was visualized using a polyclonal anti-human secondary antibody and analyzed by flow cytometry. Briefly, binding of anti-CD3 antibodies to cell-surface CD3ε was assessed by flow cytometry using primary Human T lymphocytes purified by negative selection (Biological Specialty, Colmar, USA). Expression supernatants or purified antibodies were normalized to 10 μg/ml in media or FACS buffer (BD BioSciences), respectively. 2×10⁵ cells were aliquoted into wells of a 96 well round-bottomed plate (CoStar) for labeling. Antibodies in expression supernatant were added to cells and incubated for 45 min at 4° C. Following centrifugation at 1300 rpm for 3 min and removal of supernatant, 50 μL of anti-human IgG (H+L) Alexa Fluor 647 secondary antibody (Life technologies Inc.) was incubated with the cells at a final concentration of 10 μg/mL for 30 min at 4° C. away from direct light. Following washing and resuspension in 30 μL FACs buffer (BD BioSciences). Sample collection was performed on an Intellicyt HTFC system using ForeCyt software. Viable single cells were gated prior to analysis of binding using the green or red fixable live/dead dyes (Life Technologies Inc.) and forward/side scatter area and height parameters, respectively. Graphs were generated in GraphPad Prism version 5 using mean fluorescence intensity values.

[2] = molecular target: T2, cell-surface CD3 epsilon on primary cynomolgus T cells (cynomolgus monkey, UniProt Q95LI5 22-198); experiment: flow cytometry on primary cynomolgus CD4+ T cells, anti-human IgG Alexa Fluor 647; MFI
T2 construct: whole, on cells; also called cynomolgus CD3e; Cyno T-cells
T2 sequence (Q95LI5 22-198): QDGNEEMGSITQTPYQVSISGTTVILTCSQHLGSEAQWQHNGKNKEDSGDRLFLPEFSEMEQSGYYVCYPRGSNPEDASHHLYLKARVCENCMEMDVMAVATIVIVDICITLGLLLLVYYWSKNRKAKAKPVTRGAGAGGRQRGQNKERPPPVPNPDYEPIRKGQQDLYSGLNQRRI
Protocol: as §1
Binding analysis of the anti-CD3 hits to primary cynomolgusCD4⁺ T cells was then tested in order to assess the retention of cross-reactivity. Purified CD4⁺ T cells from the peripheral blood of cynomolgus monkeys (Zen Bio, Triangle Research Park, USA were used). Assay protocols were similar to those described above.

[3] = molecular target: T3, cyno CD123 ECD displayed on pDisplay-transfected cells (cynomolgus monkey); experiment: MSD cell binding on 293F pDisplay cells; fold change over background; parental 293F cells as control
T3 construct: ECD anchored on the surface of stably transfected HEK293 cells; also called cynoCD123 SP1 cells; cynoCD123 cells
T3 chain: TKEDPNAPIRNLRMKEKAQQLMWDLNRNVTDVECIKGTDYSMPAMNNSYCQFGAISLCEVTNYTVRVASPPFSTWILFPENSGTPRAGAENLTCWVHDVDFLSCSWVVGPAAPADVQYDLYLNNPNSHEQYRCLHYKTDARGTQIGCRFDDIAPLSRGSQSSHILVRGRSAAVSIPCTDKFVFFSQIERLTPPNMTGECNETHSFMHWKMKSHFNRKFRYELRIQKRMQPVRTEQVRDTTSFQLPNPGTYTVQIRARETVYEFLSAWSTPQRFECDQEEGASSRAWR
Protocol: (§2) The object of the screening assay was to identify antibodies that bound to cells expressing hCD123 SP1 and SP2 as well as cross reactivity with cells expressing cynoCD123 SP1.
(§3) Cells were immobilized and phages were assayed in triplicate. […] 5000 cells per well were plated into a 384 well plate (MA6000, cat. L21XB, MSD) and allowed to adhere for 2 hr. Cells were then blocked with 20% FBS in PBS (Gibco) for 15 mins. Antibody supernatants were then added and left at RT for 1 hr. Cells were washed 3 times with PBS and a ruthenium labeled secondary antibody (Jackson Immuno Research) was then added at 1 μg/mL and incubated for 1 hr at room temperature. A further washing step was then applied and 35 μL per well of MSD Read buffer T (surfactant free) was then added and incubated for 30 min for detection. Plates were then read using Sector Imager 2400 (MSD). Data was normalized to controls and graphed using GraphPad Prism Version 5. A positive binder was determined to be a hit with a signal 3× greater than background (FIGS. 2A, B and C).

[4] = molecular target: T4, Recombinant human CD123 SP1 ECD-His tag protein (human, UniProt P26951 20-305); experiment: SPR Biacore 3000, captured mAb
T4 construct: bought from R&D Systems (#301-R3/CF); biotinylated for some assays; also called rhCD123 SP1; huCD123 ECD SP1
T4 sequence: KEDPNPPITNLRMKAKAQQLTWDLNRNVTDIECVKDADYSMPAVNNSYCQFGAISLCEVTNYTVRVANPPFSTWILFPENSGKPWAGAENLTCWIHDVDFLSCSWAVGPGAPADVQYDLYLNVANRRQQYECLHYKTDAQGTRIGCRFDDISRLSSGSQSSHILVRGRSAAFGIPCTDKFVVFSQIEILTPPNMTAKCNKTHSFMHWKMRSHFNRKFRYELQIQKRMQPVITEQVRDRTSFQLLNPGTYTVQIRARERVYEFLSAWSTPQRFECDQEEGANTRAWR
Protocol: (§4) Kinetic studies were performed at 25° C. using a Biacore 3000 (BIAcore, Inc., now part of GE Healthcare). […] Sheep anti-Human Fd specific antibody (The binding site Prod # PC075) was covalently attached to two flow cells (normally 3 and 4) of the carboxymethyl dextran coated gold surfaces (CM-5 Chip, Biacore). The carboxymethyl groups of dextran were activated with N-Ethyl-N′-(3-Dimethylaminopropyl)carbodiimide (EDC) and N-hydroxysuccinimide (NHS). The antibodies were coupled at pH 4.5 in 10 mM sodium acetate. Any remaining reactive sites on the surface were blocked by reaction with ethanolamine. […] Association data was collected for 2 min followed by 10 min of dissociation. The surface was regenerated with 30 μL of 100 mM H3PO4 100 μL/min. All samples were prepared in D-PBS containing 3 mM EDTA and 0.005% surfactant P20. Data reported is the difference in SPR signal between the flow cell containing the captured antibody or Fab and a reference cell without captured antibody or Fab. Additional instrumental contributions to the signal were removed by subtraction of the data from the blank injection from the reference-subtracted signal. Data were performed in triplicate and analyzed by fitting association and dissociation phases at all concentrations (global fit) with a 1:1 binding model using the BIAevaluation software (BIAcore, Inc.). […] Data presented is an average.

[5] = molecular target: T4, Recombinant human CD123 SP1 ECD-His tag …; experiment: SPR ProteOn, captured mAb
Protocol: The biosensor surface was prepared by covalently coupling Goat anti-Human IgG (Fc) to the surface of a GLC chip (BioRad) using the manufacturer instructions for amine-coupling chemistry. […] The RU immobilized also included a goat anti-mouse Fc antibody that was added to capture other antibodies not included in the ones reported here. Since the mixture was 1:1 about 50% of these RU immobilized are expected to be goat anti-human Fc. The kinetic experiments were performed at 25° C. in running buffer (PBS pH 7.4, 0.005% P20, 3 mM EDTA). […] The reference spots (Goat anti-Human IgG (Fc)-modified surface) containing no candidate captured were used as a reference surface. Capture of mAb was followed by 3 min injection (association phase) of antigen at 40 μL/min, followed by 10 min of buffer flow (dissociation phase). […] Data was processed on the instrument software. Double reference subtraction of the data was performed by subtracting the curves generated by buffer injection from the reference-subtracted curves for analyte injections. Kinetic analysis of the data was performed using 1:1 Langmuir binding model with group fit. The result for each mAb was reported in the format of Kₐ (kon or on-rate), Kd (koff or off-rate), KD (Equilibrium dissociation constant) (Table 5).

[6] = molecular target: T5, human CD123 SP2 ECD displayed on pDisplay-transfected cells (human, UniProt P26951 101-305); experiment: MSD cell binding on 293F pDisplay cells; fold change over background; parental 293F cells as control
T5 construct: ECD anchored on the surface of stably transfected HEK293 cells; also called hCD123 SP2 cells; pDisplay CD123SP2
T5 sequence: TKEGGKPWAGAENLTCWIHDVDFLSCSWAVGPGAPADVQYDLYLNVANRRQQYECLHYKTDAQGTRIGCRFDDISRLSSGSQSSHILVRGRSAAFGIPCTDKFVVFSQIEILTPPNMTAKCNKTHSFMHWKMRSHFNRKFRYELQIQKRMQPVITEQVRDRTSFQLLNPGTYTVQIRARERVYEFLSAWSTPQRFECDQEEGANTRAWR
Protocol: as §2, §3

[7] = molecular target: T4, Recombinant human CD123 SP1 ECD-His tag …; experiment: SPR Biacore 3000, captured Fab
Protocol: as §4

B1: G11 (antibody, V domains shown)
VH: EVQLLESGGGLVQPGGSLRLSCAASGFTFSSYGMSWVRQAPGKGLEWVSGINGGGGSKYYADSVKGRFTISRDNSKNTLYLQMNSLRAEDTAVYYCAKTSAQRFDYWGQGTLVTVSS
VL: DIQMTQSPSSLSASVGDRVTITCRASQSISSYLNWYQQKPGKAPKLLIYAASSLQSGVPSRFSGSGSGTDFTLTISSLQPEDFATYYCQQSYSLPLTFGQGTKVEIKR
notes: in-house phage-derived anti-CD3 positive control with the same Fc region as the tested antibodies
Q: Does B1 bind [1]?
A: binds

B2: CD3B143 (antibody, IgG1, V domains shown)
VH: EVQLVESGGGLVQPGGSLRLSCAASGFTFNTYAMNWVRQAPGKGLEWVARIRSKYNNYATYYAASVKGRFTISRDDSKNSLYLQMNSLKTEDTAVYYCARHGNFGNSYVSWFAYWGQGTLVTVSS
VL: QAVVTQEPSLTVSPGGTVTLTCRSSTGAVTTSNYANWVQQKPGQAPRGLIGGTNKRAPGTPARFSGSLLGGKAALTLSGAQPEDEAEYYCALWYSNLWVFGGGTKLTVL
notes: IgG1 constant region with L234A, L235A, F405L; human lambda light chain constant region
Q: Which results are given for B2?
A: binding result [2]: binds; binding result [1]: binds

B3: CD3B148 (antibody, IgG1, V domains shown)
VH: EVQLLESGGGLVQPGGSLRLSCAASGFTFNTYAMNWVRQAPGKGLEWVARIRSKYNNYATYYADSVKGRFTISRDNSKNTLYLQMNSLRAEDTAVYYCAKHGNFGNSYVSWFAYWGQGTLVTVSS
VL: QSVLTQPPSVSAAPGQKVTISCRSSTGAVTTSNYANWVQQLPGTAPKGLIGGTNKRAPGIPDRFSGSKSGTSATLGITGLQTGDEADYYCALWYSNLWVFGGGTKLTVL
notes: as for B2
Q: Does B3 bind [2]?
A: no binding (tested: not printed)

B4: CD3B144 (antibody, IgG1, V domains shown)
VH: EVQLVESGGGLVQPGGSLRLSCAASGFTFNTYAMNWVRQAPGKGLEWVARIRSKYNNYATYYAASVKGRFTISRDDSKNSLYLQMNSLKTEDTAVYYCARHGNFGNSYVSWFAYWGQGTLVTVSS
VL: QSVLTQPPSVSAAPGQKVTISCRSSTGAVTTSNYANWVQQLPGTAPKGLIGGTNKRAPGIPDRFSGSKSGTSATLGITGLQTGDEADYYCALWYSNLWVFGGGTKLTVL
notes: as for B2
Q: Does B4 bind [1]?
A: no binding

B5: I3RB35 (antibody, IgG1, V domains shown)
VH: QVQLVQSGAEVKKPGSSVKVSCKASGGTFSSYAISWVRQAPGQGLEWMGGIIPIFGTANYAQKFQGRVTITADESTSTAYMELSSLRSEDTAVYYCARHLFWDAGPLDYWGQGTLVTVSS
VL: DIQMTQSPSSLSASVGDRVTITCRASQSISSYLNWYQQKPGKAPKLLIYAASSLQSGVPSRFSGSGSGTDFTLTISSLQPEDFATYYCQQYFSPPYTFGQGTKVEIK
notes: IgG1
Q: Does B5 bind [3]?
A: binds

Q: And the Kd [4]?
A: 4.8 nM

Q: What about the koff [4] of the same binder?
A: 0.00258 s⁻¹

Q: And the kon [4]?
A: 540000 M⁻¹ s⁻¹

Q: And the Kd [5]?
A: 2.83 nM

Q: What about the koff [5] of the same binder?
A: 0.00293 s⁻¹

Q: And the kon [5]?
A: 1.04e+06 M⁻¹ s⁻¹

B6: I3RB37 (antibody, IgG1, V domains shown)
VH: QVQLVQSGAEVKKPGSSVKVSCKASGGTFSSYAISWVRQAPGQGLEWMGGIIPIFGTANYAQKFQGRVTITADESTSTAYMELSSLRSEDTAVYYCARDKTDFPSRLDYWGQGTLVTVSS
VL: DIQMTQSPSSLSASVGDRVTITCRASQSIATWLNWYQQKPGKAPKLLIYAASSLQSGVPSRFSGSGSGTDFTLTISSLQPEDFATYYCQQYITFPLTFGQGTKVEIK
notes: IgG1
Q: Does B6 bind [6]?
A: no binding (tested: 10 µg/mL)

Q: Does B6 bind [3]?
A: binds

Q: And the Kd [4]?
A: 9.7 nM

Q: What about the koff [4] of the same binder?
A: 0.0053 s⁻¹

Q: And the kon [4]?
A: 545000 M⁻¹ s⁻¹

Q: What about the Kd [5] of the same binder?
A: 6.27 nM and 5.15 nM

Q: And the koff [5]?
A: 0.00669 s⁻¹ and 0.00621 s⁻¹

Q: What about the kon [5] of the same binder?
A: 1.07e+06 M⁻¹ s⁻¹ and 1.21e+06 M⁻¹ s⁻¹

B7: I3RB122 (Fab, V domains shown)
VH: QVQLVQSGAEVKKPGSSVKVSCKASGGTFSSYAISWVRQAPGQGLEWMGGIIPIFGTANYAQKFQGRVTITADESTSTAYMELSSLRSEDTAVYYCARDKTDFPSRLDYWGQGTLVTVSS
VL: DIQMTQSPSSLSASVGDRVTITCRASQSIATWLNWYQQKPGKAPKLLIYAASSLQSGVPSRFSGSGSGTDFTLTISSLQPEDFATYYCQQYITFPLTFGQGTKVEIK
notes: also called Fab of I3RB37
Q: For B7, which Kd [7] is on record?
A: 11.5 nM

Q: What about the koff [7] of the same binder?
A: 0.0045 s⁻¹

Q: What about the kon [7] of the same binder?
A: 393000 M⁻¹ s⁻¹

B8: CD3B124 (antibody, human IgG1, V domains shown)
VH: EVKLLESGGGLVQPKGSLKLSCAASGFTFNTYAMNWVRQAPGKGLEWVARIRSKYNNYATYYADSVKDRFTISRDDSQSILYLQMNNLKTEDTAMYYCVRHGNFGNSYVSWFAYWGQGTLVTVSA
VL: QAVVTQESALTTSPGETVTLTCRSSTGAVTTSNYANWVQEKPDHLFTGLIGGTNKRAPGVPARFSGSLIGDKAALTITGAQTEDEAIYFCALWYSNLWVFGGGTKLTVL
notes: Chimeric: VH and VL of SP34 with murine framework and a human IgG1 Fc; also called in-house chimeric SP34-derived antibody
Q: Does B8 bind [2]?
A: binds
